2 molecules from publication PMC3154745 can be followed below.

The target of experiment [1] is PIWI peptide with HP2 pentamer, N-terminal fluorescein (D. melanogaster). The experiment can be described thus: fluorescence polarisation.
Experiment [2] deals with HP2 peptide with PIWI pentamer, N-terminal fluorescein (D. melanogaster). The experiment can be described thus: fluorescence polarisation.
Experiment [3] addresses T1, Full length HP1a, pET11a construct (AUC) (D. melanogaster), P05205.
T1 chain: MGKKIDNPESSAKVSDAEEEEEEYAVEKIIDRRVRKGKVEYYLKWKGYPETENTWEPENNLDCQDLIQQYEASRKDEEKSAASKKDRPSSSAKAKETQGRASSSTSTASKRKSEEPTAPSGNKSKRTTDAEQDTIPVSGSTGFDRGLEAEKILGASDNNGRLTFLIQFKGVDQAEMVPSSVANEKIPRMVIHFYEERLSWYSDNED
The experiment is described as follows: AUC. The note with it: remark: other sources report otherwise.

B1: HP1a-CSD (residues 131-206), wild type (domain or fragment)
chain: EQDTIPVSGSTGFDRGLEAEKILGASDNNGRLTFLIQFKGVDQAEMVPSSVANEKIPRMVIHFYEERLSWYSDNED
In the case of B1, the results for the dissociation constant (Kd) in experiment [1] and in experiment [2] were 21300 nM and 990 nM, respectively.

B2: Full length HP1a, pET11a construct (AUC), P05205 1-206 (natural protein)
chain: MGKKIDNPESSAKVSDAEEEEEEYAVEKIIDRRVRKGKVEYYLKWKGYPETENTWEPENNLDCQDLIQQYEASRKDEEKSAASKKDRPSSSAKAKETQGRASSSTSTASKRKSEEPTAPSGNKSKRTTDAEQDTIPVSGSTGFDRGLEAEKILGASDNNGRLTFLIQFKGVDQAEMVPSSVANEKIPRMVIHFYEERLSWYSDNED
As to B2, the Kd in experiment [3] is 1400 nM.
